Assay results from the Human Domainome abundance scans (Beltran et al. 2025).
± gives the uncertainty stated by the source.

B1: POU domain, class 4, transcription factor 1, residues 266 to 347; numbered along this chain, Q01851 (parent)
chain: RELEAFAERFKQRRIKLGVTQADVGSALANLKIPGVGSLSQSTICRFESLTLSHNNMIALKPILQAWLEEAEGAQREKMNKP

Variants of: B1
Assay: abundance fitness (aPCA) (normalised: wild type 0, dead -1); higher = more abundant; growth selection in yeast, the domain comes from the species named
Conditions: Homo sapiens

Variant | abundance fitness
P62G | -0.2 ± 0.039
P62K | -0.243 ± 0.077
P62M | -0.687 ± 0.1
P62E | -0.413 ± 0.067
P62I | -0.816 ± 0.25
S40M | -0.359 ± 0.096
S40F | -0.263 ± 0.11
S40G | -0.058 ± 0.035
S40D | 0.042 ± 0.099
P82T | -0.001 ± 0.082
P82F | -0.105 ± 0.19
P82M | 0.008 ± 0.21
K11M | -0.117 ± 0.08
K11E | -0.476 ± 0.11
K11W | -0.707 ± 0.12
K11T | -0.017 ± 0.093
K11I | -0.293 ± 0.15
K11V | -0.142 ± 0.056
S42L | -0.107 ± 0.045
S42F | -0.199 ± 0.098
S38H | 0.047 ± 0.38
S38V | 0.05 ± 0.2
I58S | -0.013 ± 0.064
I58F | -0.075 ± 0.088

Variant | abundance fitness
V36R | -0.214 ± 0.062
V36G | -0.142 ± 0.11
V36Q | -0.252 ± 0.17
V36E | -0.125 ± 0.086
V36N | -0.327 ± 0.19
V36M | -0.189 ± 0.22
I15W | -0.243 ± 0.048
I15P | -0.989 ± 0.084
I15R | -0.037 ± 0.036
I15A | -0.099 ± 0.038
P34W | -0.322 ± 0.041
P34A | 0 ± 0.029
P34T | -0.011 ± 0.039
P34M | -0.163 ± 0.041
P34L | -0.186 ± 0.036
I63N | -0.17 ± 0.11
I63M | -0.168 ± 0.078
I63D | -0.41 ± 0.1
E77S | -0.024 ± 0.032
E77P | -0.08 ± 0.048
E77C | -0.088 ± 0.041
E77F | -0.16 ± 0.063
G25V | 0.068 ± 0.04
G25H | 0.122 ± 0.16

Variant | abundance fitness
G25M | -0.009 ± 0.07
I33S | -0.23 ± 0.034
I33T | -0.145 ± 0.039
I33R | -0.217 ± 0.026
I33Q | -0.295 ± 0.04
I33D | -0.262 ± 0.054
I33F | -0.091 ± 0.048
I33H | -0.147 ± 0.06
I33V | 0.05 ± 0.027
L50S | 0.018 ± 0.033
L50C | 0.095 ± 0.046
L50Y | 0.008 ± 0.04
L50W | -0.233 ± 0.052
L50T | -0.062 ± 0.039
V24R | -0.745 ± 0.074
V24L | -0.062 ± 0.049
Q75F | -0.043 ± 0.081
Q75H | 0.041 ± 0.097
K78A | 0.089 ± 0.064
K78S | -0.092 ± 0.059
K78E | 0.035 ± 0.06
A27W | -0.088 ± 0.04
A27E | -0.035 ± 0.049
A27T | -0.069 ± 0.07

Variant | abundance fitness
R46K | 0.005 ± 0.089
R46C | -0.117 ± 0.1
R46D | 0.014 ± 0.11
L64D | -0.652 ± 0.36
L64P | -0.711 ± 0.24
L64N | -0.431 ± 0.21
L64W | -0.948 ± 0.19
L64V | -0.336 ± 0.059
L39I | 0.042 ± 0.13
L39V | 0.001 ± 0.037
E2V | -0.345 ± 0.029
E2G | -0.102 ± 0.023
E2A | -0.267 ± 0.028
E2Q | -0.16 ± 0.033
E2Y | -0.236 ± 0.055
E2H | -0.194 ± 0.048
E2I | -0.266 ± 0.062
F47L | -0.145 ± 0.063
F47P | -0.717 ± 0.19
F47R | -0.934 ± 0.12
F47E | -0.819 ± 0.15
N56A | 0.055 ± 0.046
N56M | 0.078 ± 0.075
M57E | -0.706 ± 0.085

Variant | abundance fitness
M57N | -0.19 ± 0.17
M57C | -0.268 ± 0.11
M57K | -0.901 ± 0.15
M57R | -0.775 ± 0.058
S53I | -0.173 ± 0.31
S53R | -0.139 ± 0.04
S53F | -0.903 ± 0.23
S53M | -0.419 ± 0.076
S53C | 0.004 ± 0.089
S53T | -0.174 ± 0.064
R13H | -0.103 ± 0.062
R13L | -0.148 ± 0.037
R13S | 0.014 ± 0.038
R13C | -0.369 ± 0.048
R13A | -0.026 ± 0.035
R13E | -0.065 ± 0.056
R13K | -0.048 ± 0.051
R13T | 0.008 ± 0.042
E8V | 0.015 ± 0.057
E8P | -0.749 ± 0.2
E8C | -0.238 ± 0.12
E8S | 0.014 ± 0.071
E8G | -0.048 ± 0.045
E8N | 0.063 ± 0.091

Variant | abundance fitness
E8T | -0.078 ± 0.094
S49Y | -0.396 ± 0.044
S49M | -0.101 ± 0.037
S49F | -0.632 ± 0.065
S49I | -0.573 ± 0.063
S49C | -0.082 ± 0.037
Q65W | -0.144 ± 0.029
Q65F | -0.112 ± 0.041
E70I | -0.161 ± 0.053
E70D | -0.018 ± 0.037
E70K | 0.004 ± 0.035
E70Q | -0.015 ± 0.034
E70L | -0.18 ± 0.029
E70W | -0.311 ± 0.032
E70C | -0.125 ± 0.037
E70G | -0.061 ± 0.023
V19G | -0.55 ± 0.061
V19R | -0.019 ± 0.037
V19L | -0.016 ± 0.049
V19D | -0.308 ± 0.14
V19I | -0.012 ± 0.078
V19H | -0.14 ± 0.11
V19M | 0.096 ± 0.067
W67E | -0.806 ± 0.13

Variant | abundance fitness
W67D | -0.425 ± 0.23
W67T | -0.805 ± 0.18
W67L | -0.475 ± 0.069
E4S | -0.091 ± 0.046
E4K | 0.056 ± 0.063
E4H | 0.108 ± 0.079
E4M | 0.04 ± 0.064
R14K | -1.09 ± 0.14
R14Y | -0.884 ± 0.098
R14M | -0.914 ± 0.092
R14G | -1.07 ± 0.081
N30P | 0.06 ± 0.1
N30A | 0.028 ± 0.059
N30G | -0.009 ± 0.041
N30E | -0.043 ± 0.072
L52H | -0.234 ± 0.2
L52E | -0.132 ± 0.052
F10K | -0.9 ± 0.079
F10N | -0.822 ± 0.093
F10Y | -0.599 ± 0.064
F10D | -0.804 ± 0.076
F10W | -0.237 ± 0.029
F10S | -0.914 ± 0.055
